From publication PMC8265312 come the findings set out here.

The target in test [1] is endogenous huGAPDH on the surface of dying A549 cells (human (endogenous in A549)) (UniProt P04406). Put plainly: competition of binding to cells, cell-bound PspA detected by immunoblot. A general note: A western blot detects proteins with antibodies after separation by electrophoresis.
The target of test [2] is recombinant human GAPDH (human) (UniProt P04406). Kind of test: SPR. A general note: SPR reads the build-up and loss of mass on a sensor chip optically.

Turning to “recombinant His-tagged PspA (pneumococcal surface protein A) composed of the αHD and PRD (domain or fragment)”, the percent reduction of cell-bound PspA by GAPDH70 in test [1] is 50%. For the same substance, the equilibrium dissociation constant (Kd) (usually the free concentration of one partner at which half of the binding sites on the other are occupied at equilibrium, for simple one-to-one binding) in test [2] is 2950 nM.
